Measurements from article PMC8172861, “Structural and phylogenetic analyses of resistance to next-generation aminoglycosides conferred by AAC(2′) enzymes” (Scientific Reports, 2021).

Columns and labels:
Assay in all cases: purified protein
Type in all cases: biochemical, Providencia stuartii
[1] = system: NC[C@H]1O[C@H](O[C@H]2[C@H](O)[C@@H](O[C@H]3O[C@H](CO)[C@@H](O)[C@H](N)[C@H]3O)[C@H](N)C[C@@H]2N)[C@H](N)C[C@@H]1O; settings: acetyl-CoA aminoglycoside active site; acetylated at N-2′
[2] = system: CCN[C@@H]1C[C@H](N)[C@@H](O[C@H]2OC(CN)=CC[C@H]2N)[C@H](O)[C@H]1O[C@H]1OC[C@](C)(O)[C@H](NC)[C@H]1O; settings: acetyl-CoA aminoglycoside active site; acetylated at N-2′
[3] = system: CN[C@@H]1[C@@H](O)[C@@H](O[C@@H]2[C@@H](O)[C@H](O[C@H]3OC(CNCCO)=CC[C@H]3N)[C@@H](N)C[C@H]2NC(=O)[C@@H](O)CCN)OC[C@]1(C)O; settings: acetyl-CoA (S)-HABA tail hydrogen bonds with Glu149 and Asp176

AAC(2′)-Ia (Providencia stuartii)
Km [1]: 14.5 ± 1.7 µM
kcat [1]: 5.04 ± 0.17 s⁻¹
kcat/Km [1]: 348000 ± 51000 M⁻¹ s⁻¹
Km [2]: 19.9 ± 1.3 µM
kcat [2]: 6.05 ± 0.13 s⁻¹
kcat/Km [2]: 304000 ± 26000 M⁻¹ s⁻¹
Km [3]: 19.1 ± 2.5 µM
kcat [3]: 1.42 ± 0.05 s⁻¹
kcat/Km [3]: 74000 ± 12000 M⁻¹ s⁻¹
